Read-outs that look alike come from different tables or passages of the source.
T1: CysR∼CTLD3-Fc of DEC205 (human, UniProt O60449 28-627)
T1 construct: signal peptide in the construct; DEC205 (CD205, Ly75), human, CysR∼CTLD3 fragment, residues M1-S627; Human Fc homodimeric fragment with 6xHis at its C-termini fused to the C-terminus of CysR∼CTLD3; Used for Western blot (overlay) assays and ELISA; also called CysR∼CTLD3 fragment; CysR-CTLD3 fragment; source: High-Five insect cells (baculovirus made in Sf9), from culture supernatant, purified …
T1 sequence (looked up): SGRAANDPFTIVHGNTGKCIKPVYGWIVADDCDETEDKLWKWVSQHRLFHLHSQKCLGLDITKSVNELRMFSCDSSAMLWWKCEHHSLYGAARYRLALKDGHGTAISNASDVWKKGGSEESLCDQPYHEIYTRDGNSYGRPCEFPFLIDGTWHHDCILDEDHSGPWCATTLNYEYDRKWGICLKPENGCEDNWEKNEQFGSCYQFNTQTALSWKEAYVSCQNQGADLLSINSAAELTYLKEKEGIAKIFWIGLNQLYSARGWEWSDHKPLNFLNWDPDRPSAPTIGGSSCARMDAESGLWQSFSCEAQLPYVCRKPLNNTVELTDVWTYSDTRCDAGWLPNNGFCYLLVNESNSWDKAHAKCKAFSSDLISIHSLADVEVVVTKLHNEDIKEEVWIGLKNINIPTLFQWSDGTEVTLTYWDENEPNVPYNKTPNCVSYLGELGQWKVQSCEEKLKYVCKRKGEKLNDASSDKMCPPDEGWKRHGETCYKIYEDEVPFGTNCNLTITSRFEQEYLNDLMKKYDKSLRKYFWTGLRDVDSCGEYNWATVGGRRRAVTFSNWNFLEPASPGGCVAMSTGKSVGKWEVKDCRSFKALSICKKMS

T2: CysR∼CTLD3-GFP fragment of DEC205 (wild type) (human, UniProt O60449 28-627)
T2 construct: signal peptide in the construct; DEC205 (CD205, Ly75), human, CysR∼CTLD3 fragment, residues M1-S627; Used for flow cytometry; also called CysR-CTLD3 fragment; not shown: GFP, C-terminal, kept
T2 sequence (looked up): T1 sequence (looked up)

T3: Human keratin 10 C-terminal tail fragment K10-T1 (residue G461-Y584) (human, UniProt P13645 461-584)
T3 chain: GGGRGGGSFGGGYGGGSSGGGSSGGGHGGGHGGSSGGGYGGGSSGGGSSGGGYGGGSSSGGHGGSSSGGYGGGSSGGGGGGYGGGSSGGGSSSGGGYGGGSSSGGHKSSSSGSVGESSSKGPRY

T4: Human keratin 1 tail region K1-T1 (residue E490-R644) (human, UniProt P04264 490-644)
T4 chain: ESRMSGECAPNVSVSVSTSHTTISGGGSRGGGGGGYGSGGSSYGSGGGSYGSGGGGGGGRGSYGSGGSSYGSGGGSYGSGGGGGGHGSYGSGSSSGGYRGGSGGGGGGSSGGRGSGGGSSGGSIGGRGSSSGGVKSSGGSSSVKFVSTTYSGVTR

B1: K10-T8 (residue G492-G506), SUMO fusion (peptide, UniProt P13645 492-506, looked up)
chain: GGSSGGGYGGGSSGG
notes: keratin 10 (K10), human, tail, residues G492-G506; source: E. coli BL21(DE3), pET28a, purified (Ni-NTA); not shown: SUMO, N-terminal, kept
B2: K10-T6 (residue G461-G476), SUMO fusion (peptide, UniProt P13645 461-476, looked up)
chain: GGGRGGGSFGGGYGGG
notes: keratin 10 (K10), human, tail, residues G461-G476; source: E. coli BL21(DE3), pET28a, purified (Ni-NTA); not shown: SUMO, N-terminal, kept
B3: chemically synthesized peptide K10-T10 (peptide)
peptide: GSSGGGHGGG
notes: keratin 10 (K10), human, tail, residues G481-G490; source: synthetic peptide
B4: chemically synthesized peptide K10-T11 (peptide)
peptide: GSSGGGYGGG
notes: keratin 10 (K10), human, tail, residues G507-G516; source: synthetic peptide
B5: K10-T10 (residue G481-G490), SUMO fusion (peptide)
chain: GSSGGGHGGG
notes: keratin 10 (K10), human, tail, residues G481-G490; Form used in the Western blot (overlay) assay and, with SUMO as control, in ELISA; source: E. coli BL21(DE3), pET28a, purified (Ni-NTA); not shown: SUMO, N-terminal, kept
B6: K10-T9 (residue G507-G520), SUMO fusion (peptide, UniProt P13645 507-520, looked up)
chain: GSSGGGYGGGSSSG
notes: keratin 10 (K10), human, tail, residues G507-G520; source: E. coli BL21(DE3), pET28a, purified (Ni-NTA); not shown: SUMO, N-terminal, kept
B7: K1-T2 (I512-G521: ISGGGSRGGG), SUMO fusion (peptide)
chain: ISGGGSRGGG
notes: keratin 1 (K1), human, tail, residues I512-G521; Expressed and purified for ELISA and flow cytometry; source: E. coli BL21(DE3), pET28a, purified (Ni-NTA)
B8: K10-T7 (residue S477-H491), SUMO fusion (peptide, UniProt P13645 477-491, looked up)
chain: SSGGGSSGGGHGGGH
notes: keratin 10 (K10), human, tail, residues S477-H491; source: E. coli BL21(DE3), pET28a, purified (Ni-NTA); not shown: SUMO, N-terminal, kept
B9: K10-T11 (residue G507-G516), SUMO fusion (peptide)
chain: GSSGGGYGGG
notes: keratin 10 (K10), human, tail, residues G507-G516; source: E. coli BL21(DE3), pET28a, purified (Ni-NTA); not shown: SUMO, N-terminal, kept
B10: K1-T3 (G532-G541 and G560-G569: GSGGGSYGSG), SUMO fusion (peptide)
chain: GSGGGSYGSG
notes: Expressed and purified for ELISA and flow cytometry; source: E. coli BL21(DE3), pET28a, purified (Ni-NTA)
B11: K10-T4 (residue G461-H491), SUMO fusion (peptide, UniProt P13645 461-491, looked up)
chain: GGGRGGGSFGGGYGGGSSGGGSSGGGHGGGH
notes: keratin 10 (K10), human, tail, residues G461-H491; source: E. coli BL21(DE3), pET28a, purified (Ni-NTA); not shown: SUMO, N-terminal, kept
B12: Human keratin 10 C-terminal tail fragment K10-T1 (residue G461-Y584) (domain or fragment, UniProt P13645 461-584, looked up)
chain: T3 chain
notes: keratin 10 (K10), human, C-terminal tail, residues G461-Y584; Expressed without a SUMO tag; source: E. coli BL21(DE3), pET28a, purified (Ni-NTA)
B13: K10-T5 (residue G492-G520), SUMO fusion (peptide, UniProt P13645 492-520, looked up)
chain: GGSSGGGYGGGSSGGGSSGGGYGGGSSSG
notes: keratin 10 (K10), human, tail, residues G492-G520; source: E. coli BL21(DE3), pET28a, purified (Ni-NTA); not shown: SUMO, N-terminal, kept
B14: CysR∼CTLD3-Fc of DEC205 (Fc fusion)
chain: T1 sequence (looked up)
B15: CysR∼CTLD3 fragment of human DEC205 (residues M1-S627) with a C-terminal 6xHis-tag (domain or fragment, UniProt O60449 28-627, looked up)
chain: T1 sequence (looked up)
notes: signal peptide in the construct; DEC205 (CD205, Ly75), human, CysR∼CTLD3 fragment, residues M1-S627; Construct used for crystallisation; a homodimer stands in the asymmetric unit of the P1 crystal form only; also called N-terminal fragment of DEC205; CD205; source: High-Five insect cells (baculovirus made in Sf9), from culture supernatant, purified (Ni-NTA, gel filtration)
B16: K10-T2 (residue G461-G520), SUMO fusion (domain or fragment, human, UniProt P13645 461-520, looked up)
chain: GGGRGGGSFGGGYGGGSSGGGSSGGGHGGGHGGSSGGGYGGGSSGGGSSGGGYGGGSSSG
notes: keratin 10 (K10), human, tail, residues G461-G520; source: E. coli BL21(DE3), pET28a, purified (Ni-NTA); not shown: SUMO, N-terminal, kept

Key:
CysR∼CTLD3-Fc of DEC205 [1] = target: T1, CysR∼CTLD3-Fc of DEC205; test: far-Western, overlay or dot blot; keratin fragments resolved by SDS-PAGE and transferred to PVDF; membrane incubated with CysR∼CTLD3-Fc (10 μg/ml) in PBS, 5% milk, 0.1% Tween 20, pH 6.0 or pH 7.4, 2 h, room temperature; detected with HRP anti-human IgG Fcγ antibody; details: both partners purified
[2] = target: T2, CysR∼CTLD3-GFP fragment of DEC205 (wild …); test: flow cytometry on cells; inhibition assay: ActD-induced Jurkat cells in PBS pH 6.0 incubated with CysR∼CTLD3-GFP with or without keratin fragments (about 20 μg/ml); the pair meant is keratin fragment and CysR∼CTLD3-GFP; details: both partners purified
CysR∼CTLD3-Fc of DEC205 [3] = target: B14; test: ELISA; pH 6.0
CysR∼CTLD3-Fc of DEC205 [4] = target: T1, CysR∼CTLD3-Fc of DEC205; test: ELISA; keratin fragments coated (∼2 μg per well); CysR∼CTLD3-Fc serially diluted in PBS, 2 mg/ml BSA at preset pH (acidic pH), 2 h, 37 °C; detected with HRP anti-human IgG Fcγ antibody; details: both partners purified
CysR∼CTLD3-Fc of DEC205 [5] = target: B14; test: ELISA; pH 6.0
[6] = target: T3, Human keratin 10 C-terminal tail …; test: ELISA; pH 6.0
[7] = target: T4, Human keratin 1 tail region K1-T1 …; test: ELISA; pH 6.0
[8] = target: the molecule itself; test: crystal structure; CysR∼CTLD3-His crystallised in 0.2 M sodium citrate, 20% PEG3350, pH 6.5-7.4, 18 °C; P1 crystal form with a homodimer in one asymmetric unit

Row | Binder | binding result (CysR∼CTLD3-Fc of DEC205 [1]) | binding result [2] | other results
1 | B1 | binds | – | –
2 | B2 | binds | – | –
3 | B3 | – | binds | –
4 | B4 | – | binds | –
5 | B5 | – | – | Kd (CysR∼CTLD3-Fc of DEC205 [3]): 10.9 nM; binding result (CysR∼CTLD3-Fc of DEC205 [4]): binds
6 | B6 | binds | – | –
7 | B7 | – | binds | binding result (CysR∼CTLD3-Fc of DEC205 [4]): binds; Kd (CysR∼CTLD3-Fc of DEC205 [5]): 29.1 nM
8 | B8 | binds | – | –
9 | B9 | binds | – | –
10 | B10 | – | binds | binding result (CysR∼CTLD3-Fc of DEC205 [4]): binds; Kd (CysR∼CTLD3-Fc of DEC205 [5]): 28.7 nM
11 | B11 | binds | – | –
12 | B12 | – | binds | binding result (CysR∼CTLD3-Fc of DEC205 [4]): binds
13 | B13 | binds | – | –
14 | B14 | – | – | Kd [6]: 11.5 nM; Kd [7]: 31.2 nM
15 | B15 | – | – | binding result [8]: binds
16 | B16 | binds | – | –

Source: publication PMC10914487, “Interaction of human dendritic cell receptor DEC205/CD205 with keratins” (The Journal of Biological Chemistry, 2024)
